According to US20230024933:

T1: phosphoserine substrate peptide RRApSVA
T1 chain: RRASVA

T2: phosphotyrosine substrate peptide ENDpYINASL
T2 chain: ENDYINASL

B1: mutant EYA1A in which exon 10 had been removed (EYA1AΔe10) (protein)
chain: MLLFPQVAVKTEPMSSSETASTTADGSLNNFSGSAIGSSSFSPRPTHQFSPPQIYPSNRPYPHILPTPSSQTMAAYGQTQFTTGMQQATAYATYPQPGQPYGISSYGALWAGIKTEGGLSQSQSPGQTGFLSYGTSFSTPQPGQAPYSYQMQGSSFTTSSGIYTGNNSLTNSSGFNSSQQDYPSYPSFGQGQYAQYYNSSPYPAHYMTSSNTSPTTPSTNATYQLQEPPSGITSQAVTDPTAEYSTIHSPSTPIKDSDSDRLRRGSDGKSRGRGRRNNNPSPPPDSDLERVFIWDLDETIIVFHSLLTGSYANRYGRECDQVHIDDVSSDDNGQDLSTYNFGTDGFPAAATSANLCLATGVRGGVDWMRKLAFRYRRVKEIYNTYKNNVGGLLGPAKREAWLQLRAEIEALTDSWLTLALKALSLIHSRTNCVNILVTTTQLIPALAKVLLYGLGIVFPIENIYSATKIGKESCFERIIQRFGRKVVYVVIGDGVEEEQGAKKHAMPFWRISSHSDLMALHHALELEYL
B2: EYA1 isoform A (human splice variant EYA1A, exon 10 included) (protein)
chain: MLLFPQVAVKTEPMSSSETASTTADGSLNNFSGSAIGSSSFSPRPTHQFSPPQIYPSNRPYPHILPTPSSQTMAAYGQTQFTTGMQQATAYATYPQPGQPYGISSYGALWAGIKTEGGLSQSQSPGQTGFLSYGTSFSTPQPGQAPYSYQMQGSSFTTSSGIYTGNNSLTNSSGFNSSQQDYPSYPSFGQGQYAQYYNSSPYPAHYMTSSNTSPTTPSTNATYQLQEPPSGITSQAVTDPTAEYSTIHSPSTPIKDSDSDRLRRGSDGKSRGRGRRNNNPSPPPDSDLERVFIWDLDETIIVFHSLLTGSYANRYGRDPPTSVSLGLRMEEMIFNLADTHLFFNDLEECDQVHIDDVSSDDNGQDLSTYNFGTDGFPAAATSANLCLATGVRGGVDWMRKLAFRYRRVKEIYNTYKNNVGGLLGPAKREAWLQLRAEIEALTDSWLTLALKALSLIHSRTNCVNILVTTTQLIPALAKVLLYGLGIVFPIENIYSATKIGKESCFERIIQRFGRKVVYVVIGDGVEEEQGAKKHAMPFWRISSHSDLMALHHALELEYL

What was measured:
[1] = molecular target: histone γH2A.X^pY142, endogenous in primary murine fibroblast cultures, P27661
[2] = molecular target: T1, phosphoserine substrate peptide RRApSVA
[3] = molecular target: T2, phosphotyrosine substrate peptide …

Protein | γH2A.X^pY142 foci per nucleus after NCS exposure [1] | serine phosphatase activity (dephosphorylation assay) [2] | tyrosine phosphatase activity (dephosphorylation assay with phosphorylated peptide) [3]
B1 | deletion of EYA1A critical exon 10 (EYA146e10) normalized premature γH2A.X^pY142 dephosphorylation and γH2A.X clearance | dephosphorylation assays using the synthetic serine phosphatase substrate RRApSVA demonstrated superior serine phosphatase activity | 
B2 | EYA1A overexpression induced premature γH2A.X^pY142 dephosphorylation and clearance of DSBs |  | confirmed increased tyrosine phosphatase activity of EYA1A
